{"source": "the supplement of paper PMC11908140", "parents": {"B1": {"name": "library; numbered along this chain (parent)", "chain": "MRKPRAAVGSGHRKQAASQEGRQKHAKNNSQAKPSACDGLARQPEEVVLQASVSSYHLFRDVAEVTAFRGSLLSWYDQEKRDLPWRRRAEDEMDLDRRAYAVWVSEVMLQQTQVATVINYYTGWMQKWPTLQDLASASLEEVNQLWAGLGYYSRGRRLQEGARKVVEELGGHMPRTAETLQQLLPGVGRYTAGAIASIAFGQATGVVDGNVARVLCRVRAIGADPSSTLVSQQLWGLAQQLVDPARPGDFNQAAMELGATVCTPQRPLCSQCPVESLCRARQRVEQEQLLASGSLSGSPDVEECAPNTGQCHLCLPPSEPWDQTLGVVNFPRKASRKPPREESSATCVLEQPGALGAQILLVQRPNSGLLAGLWEFPSVTWEPSEQLQRKALLQELQRWAGPLPATHLRHLGEVVHTFSHIKLTYQVYGLALEGQTPVTTVPPGARWLTQEEFHTAAVSTAMKKVFRVYQGQQPGTCMGSKRSQVSSPCSRKKPRMGQQVLDNFFRSHISTDAHSLNSAAQ"}}, "data": [{"variants_of": "B1", "experiment": "8OG:A repair function score (normalized; synonymous = 0, nonsense = -1) (normalized log-likelihood score); higher = more repair activity (WT-like)", "conditions": "with 8OG:A DNA repair reporter (GFP) in HEK-293 MUTYH KO cells", "how_it_was_run": "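Lentiviral MUTYH cDNA NNN codon-scan libraries in HEK-293 MUTYH knockout cells (10 pg/ml doxycycline) were co-transfected with an 8OG:A GFP repair reporter plus mCherry. At 72 h, viable mCherry+ cells were sorted into GFP+ (repair) and GFP− bins, three replicates per tile, then tile amplicons were sequenced. Per-tile Rosace fitness scores became a normalized repair function score anchored on synonymous and nonsense distributions. Synonymous medians were set to 0 and nonsense to -1; variants under 300 counts per million at the start were removed.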", "values": [{"variant": "MRKPRAAVGSGHRKQAASQEGRQKHAKNNSQAKPSACDGLARQPEEVVLQASVSSYHLFRDVAEVTAFRGSLLSWYDQEKRDLPWRRRAEDEMDLDRRAYAVWVSEVMLQQTQVATVINYYTGWMQKWPTLQDLASASLEEVNQLWAGLGYYSRGRRLQEGARKVVEELGGHMPRTAETLQQLLPGVGRYTAGAIASIAFGQATGVVDGNVARVLCRVRAIGADPSSTLVSQQLWGLAQQLVDPARPGDFNQAAMELGATVCTPQRPLCSQCPVESLCRARQRVEQEQLLASGSLSGSPDVEECAPNTGQCHLCLPPSEPWDQTLGVVNFPRKASRKPPREESSATCVLEQPGALGAQILLVQRPNSGLLAGLWEFPSVTWEPSEQLQRKALLQELQRWAGPLPATHLRHLGEVVHTFSHIKLTYQVYGLALEGQTPVTTVPPGARWLTQEEFHTAAVSTAMKKVFRVYQGQQPGTCMGSKRSQVSSPCSRKKPRMGQQVLDQFFRSHISTDAHSLNSAAQ", "note": "[N503Q]", "8OG:A repair function score": 0.0112}, {"variant": "MRKPRAAVGSGHRKQAASQEGRQKHAKNNSQAKPSACDGLARQPEEVVLQASVSSYHLFRDVAEVTAFRGSLLSWYDQEKRDLPWRRRAEDEMDLDRRAYAVWVSEVMLQQTQVATVINYYTGWMQKWPTLQDLASASLEEVNQLWAGLGYYSRGRRLQEGARKVVEELGGHMPRTAETLQQLLPGVGRYTAGAIASIAFGQATGVVDGNVARVLCRVRAIGADPSSTLVSQQLWGLAQQLVDPARPGDFNQAAMELGATVCTPQRPLCSQCPVESLCRARQRVEQEQLLASGSLSGSPDVEECAPNTGQCHLCKPPSEPWDQTLGVVNFPRKASRKPPREESSATCVLEQPGALGAQILLVQRPNSGLLAGLWEFPSVTWEPSEQLQRKALLQELQRWAGPLPATHLRHLGEVVHTFSHIKLTYQVYGLALEGQTPVTTVPPGARWLTQEEFHTAAVSTAMKKVFRVYQGQQPGTCMGSKRSQVSSPCSRKKPRMGQQVLDNFFRSHISTDAHSLNSAAQ", "note": "[L315K]", "8OG:A repair function score": -0.116}, {"variant": "MRKPRAAVGSGHRKQAASQEGRQKHAKNNSQAKPSACDGLARQPEEVVLQASVSSYHLFRDVAEVTAFRGSLLSWYDQEKRDLPWRRRAEDEMDLDRRAYAVWVSEVMLQQTQVATVINYYTGWMQKWPTLQDLASASLEEVNQLWAGLGYYSTGRRLQEGARKVVEELGGHMPRTAETLQQLLPGVGRYTAGAIASIAFGQATGVVDGNVARVLCRVRAIGADPSSTLVSQQLWGLAQQLVDPARPGDFNQAAMELGATVCTPQRPLCSQCPVESLCRARQRVEQEQLLASGSLSGSPDVEECAPNTGQCHLCLPPSEPWDQTLGVVNFPRKASRKPPREESSATCVLEQPGALGAQILLVQRPNSGLLAGLWEFPSVTWEPSEQLQRKALLQELQRWAGPLPATHLRHLGEVVHTFSHIKLTYQVYGLALEGQTPVTTVPPGARWLTQEEFHTAAVSTAMKKVFRVYQGQQPGTCMGSKRSQVSSPCSRKKPRMGQQVLDNFFRSHISTDAHSLNSAAQ", "note": "[R154T]", "8OG:A repair function score": -1.16}, {"variant": "MRKPRAAVGSGHRKQAASQEGRQKHAKNNSQAKPSACDGLARQPEEVVLQASVSSYHLFRDVAEVTAFRGSLLSWYDQEKRDLPWRRRAEDEMDLDRRAYAVWVSEVMLQQTQVATVINYYTGWMQKWPTLQDLASASLEEVNQLWAGLGYYSRGRRLQEGARKVVEELGGHMPRTAETLQQLLPGVGRYTAGAIASIAFGQATGVVDGNVARVLCRVRAIGADPSSTLVSQQLWGLAQQLVDPARPGDFNQAAMELGATVCTPQRPLCSQCPVESLCRARQRVEQEQLLASGSLSGSPDVEECAPNTGQCHLCLPPSEPWDQTLGVVNFPRKASRKPPREESSATCVLEQPGALGAQILLVQRPNSGLLAGLWEFPSVTWEPSEQLQRKALLQELQRWAGPLPATHLRHLGEVVHTFSHIKLTYQVYGLALEGQTPVTTVPPGARWLTQEEFHTAAVSTAMKKVFRVYQGQQPGTCMGSWRSQVSSPCSRKKPRMGQQVLDNFFRSHISTDAHSLNSAAQ", "note": "[K481W]", "8OG:A repair function score": -0.0431}, {"variant": "MRKPRAAVGSGHRKQAASQEGRQKHAKNNSQAKPSACDGLARQPEEVVLQASVSSYHLFRDVAEVTAFRGSLLSWYDQEKRDLPWRRRAEDEMDLDRRAYAVWVSEVMLQQTQVATVINYYTGWMQKWPTLQDLASASLEEVNQLWAGLGYYSRGRRLQEGARKVVEELGGHMPRTAETLQQLLPGVGRYTAGAIASIAFGQATGVVDGNVARVLCRVRAIGADPSSTLVSQQLWGLAQQLVDPASPGDFNQAAMELGATVCTPQRPLCSQCPVESLCRARQRVEQEQLLASGSLSGSPDVEECAPNTGQCHLCLPPSEPWDQTLGVVNFPRKASRKPPREESSATCVLEQPGALGAQILLVQRPNSGLLAGLWEFPSVTWEPSEQLQRKALLQELQRWAGPLPATHLRHLGEVVHTFSHIKLTYQVYGLALEGQTPVTTVPPGARWLTQEEFHTAAVSTAMKKVFRVYQGQQPGTCMGSKRSQVSSPCSRKKPRMGQQVLDNFFRSHISTDAHSLNSAAQ", "note": "[R246S]", "8OG:A repair function score": -0.535}, {"variant": "MRKPRAAVGSGHRKQAASQEGRQKHAKNNSQAKPSACDGLARQPEEVVLQASVSSYHLFRDVAEVTAFRGSLLSWYDQEKRDLPWRRRAEDEMDLDRRAYAVWVSEVMLQQTQVATVINYYTGWMQKWPTLQDLASASLEEVNQLWAGLGYYSRGRRLQEGARKVVEELGGHMPRTAETLQQLFPGVGRYTAGAIASIAFGQATGVVDGNVARVLCRVRAIGADPSSTLVSQQLWGLAQQLVDPARPGDFNQAAMELGATVCTPQRPLCSQCPVESLCRARQRVEQEQLLASGSLSGSPDVEECAPNTGQCHLCLPPSEPWDQTLGVVNFPRKASRKPPREESSATCVLEQPGALGAQILLVQRPNSGLLAGLWEFPSVTWEPSEQLQRKALLQELQRWAGPLPATHLRHLGEVVHTFSHIKLTYQVYGLALEGQTPVTTVPPGARWLTQEEFHTAAVSTAMKKVFRVYQGQQPGTCMGSKRSQVSSPCSRKKPRMGQQVLDNFFRSHISTDAHSLNSAAQ", "note": "[L184F]", "8OG:A repair function score": -0.304}]}]}
